Laboratory results published in patent US6489446 (HSC RESEARCH AND DEVELOPMENT LIMITED PARTNERSHIP, dated 2002).
Values belong to the binder of their own block, whether it stands above or below them.

Columns and labels:
[1] = target: the molecule itself; assay: coacervation of MFU-2 in solution; self-association
[2] = target: T1, matrix of insoluble elastin prepared from chicken aortic tissue (chicken, UniProt P07916 25-750); assay: estimate from bound radiolabelled MFU-1, assuming a 6 nm cross-sectional diameter
T1 construct: mature; Insoluble cross-linked tissue matrix, not a defined soluble protein; also called chicken elastin; chicken elastin matrix
T1 sequence (looked up): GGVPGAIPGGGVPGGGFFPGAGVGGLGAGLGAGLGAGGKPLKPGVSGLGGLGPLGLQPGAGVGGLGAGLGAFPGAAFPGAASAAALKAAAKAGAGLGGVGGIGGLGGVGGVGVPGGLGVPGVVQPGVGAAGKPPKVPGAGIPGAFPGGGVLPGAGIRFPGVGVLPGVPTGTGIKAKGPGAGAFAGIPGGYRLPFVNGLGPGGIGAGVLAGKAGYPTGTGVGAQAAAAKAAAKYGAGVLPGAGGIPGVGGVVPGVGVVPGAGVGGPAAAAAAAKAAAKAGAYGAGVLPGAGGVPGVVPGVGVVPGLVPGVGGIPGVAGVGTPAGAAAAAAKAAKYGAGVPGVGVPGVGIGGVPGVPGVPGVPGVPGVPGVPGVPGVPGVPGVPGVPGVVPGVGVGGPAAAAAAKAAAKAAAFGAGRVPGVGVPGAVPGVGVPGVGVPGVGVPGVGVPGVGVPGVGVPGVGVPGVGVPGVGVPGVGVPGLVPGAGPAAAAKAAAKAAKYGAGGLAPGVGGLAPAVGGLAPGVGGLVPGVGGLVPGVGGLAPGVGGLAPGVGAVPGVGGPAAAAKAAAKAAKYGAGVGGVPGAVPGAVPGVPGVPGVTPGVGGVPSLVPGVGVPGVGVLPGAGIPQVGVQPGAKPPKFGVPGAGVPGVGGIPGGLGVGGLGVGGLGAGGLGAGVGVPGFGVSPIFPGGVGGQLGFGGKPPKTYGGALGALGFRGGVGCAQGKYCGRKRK
Procedure: A matrix of insoluble elastin was prepared from chicken aortic tissue by a cyanogen bromide extraction method. This insoluble, non-human elastin matrix was incubated for 16 hours at 37° in phosphate-buffered saline, at pH 7.4, in the presence of radioactively labeled human MFU-1 prepared as described above. The tissue was then washed extensively with phosphate-buffered saline at pH 7.4.
Estimation of surface coverage assumed a cross-sectional diameter of the human MFU-1 of 6 nm. It was estimated that about 1–3 µg of human MFU-1 per mg chicken elastin matrix remained firmly associated with the insoluble matrix of chicken elastin.

B1: MFU-2 of human elastin (other)
chain: FPGFGVGVGGIPGVAGVPGVGGVPGVGGVPGVGISPEAQAAAAAKAAKYGVGTPAAAAAKAAAKAAQFGLVPGVGVAPGVGVAPGVGVAPGVGLAPGVGVAPGVGVAPGVGVAPAIGPEAQAAAAAKAAKYGVGTPAAAAAKAAAKAAQFGLVPGVGVAPGVGVAPGVGVAPGVGLAPGVGVAPGVGVAPGVGVAPAIGP
notes: Tandem duplicate of MFU-1, expressed with techniques similar to those for MFU-1
binding result [1]: binds

surface coverage of the chicken elastin matrix [2]: ≤ 200 fold
B2: Minimal Functional Unit-1 (MFU-1) of human elastin (other)
chain: GAGGFPGFGVGVGGIPGVAGVPGVGGVPGVGGVPGVGISPEAQAAAAAKAAKYGVGTPAAAAAKAAAKAAQFGLVPGVGVAPGVGVAPGVGVAPGVGLAPGVGVAPGVGVAPGVGVAPAIGPGGVA
modifications: radioactively labeled valine and glycine (only in the chicken elastin experiments of Example 4)
notes: also called human elastin MFU-1; Fraction 1
